Where a chain is given by its changes, count along the chain named.
B1: AB-009609 (antibody, V domains shown)
VH: QVQLVQSGAEVKKPGASVKVSCKVSGYTLTELSMHWVRQAPGKGLEWMGGFDPEDAETIYAQKFQGRVTMTEDTSTDTAYMELSSLRSEDTAVYYCATALAVTGTSDSYYYYYGMDVWGQGTTVTVSS
VL: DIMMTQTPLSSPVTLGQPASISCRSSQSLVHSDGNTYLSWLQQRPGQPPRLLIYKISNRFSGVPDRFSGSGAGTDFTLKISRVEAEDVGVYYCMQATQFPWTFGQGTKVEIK
B2: AB-009637 (antibody, V domains shown)
VH: QVQLVQSGAEVKKPGSSVKVSCKASGGTFSSYAISWVRQAPGQGLEWMGGIIPILGTANYAQKFQGRVTITADKSTSTAYMELSSLRSEDTAMYYCAREGGFYGSGRNFDYWGQGTLVTVSS
VL: not shown
B3: AB-009731 (antibody, V domains shown)
VH: QVQLVQSGAEVKKTGASVKLSCKASGYSLTSYAMHWVRQAPGQRLEWMGWLNGGNGNTKYSQKFQARVTITSDTSARTVYMELSSLTSEDTAVYYCARADHSTYWYGWFDPWGQGTLVTVSS
VL: QSVLTQPPSASGTPGQRVTISCSGSTSNIGSNYVFWYQQFPGTAPKLLIYRNDQRPSGVPDRFSASKAGTSASLAISGLRSEDEADYYCTSWDDSLNGPLFGGGTKLTVL
B4: AB-009722 (antibody, V domains shown)
VH: QVQLVQSGAEVRKPGSSVKVSCNVSGGIFNSYKITWVRQAPGQGLEWMGGIIAIFGTADYAQRFQGRLSITADESTSTAYMELSSLRSDDTAVYYCTRERFSNYFDPWGQGTLVTVSS
VL: EVVLTQSPATLSLSPGERATLSCRASQSVSSFLGWYQQKPGQAPRLLIYDASNRASGIPARFSGSGSGTDFTLTISKLEPEDFAVYYCQQRSRGPSGITFGQGTRLEIK
B5: AB-009635 (antibody, V domains shown)
VH: not shown
VL: SYELTQPPSVSVSPGQTARITCSGDALPKKYAYWYQQKSGQAPVLVIYEDSKRPSGIPERFSGSSSGTMATLTISGAQVEDEADYYCYSTDSSGNHRVFGGGTKLTVL
B6: AB-009074 (antibody, V domains shown)
VH: QVQLVESGGGVVQPGRSLRLSCAASGFTFSSYGMHWVRQAPGKGLEWVAVIWYDGSNKYYADSVKGRFTISRDNSKNTLYLQMNSLRAEDTAVYYCAREGLVGATTGFDYWGQGTLVTVSS
VL: B5 VL with R97G, G101T, L105V
B7: AB-009263 (antibody, V domains shown)
VH: EVQLVQSGAEVKKPGESLRISCQSSGYSFSTYWIAWVRQTPEKGLEWMGIIYPGDSDTRYSPTFQGQVTISADTSISTAYLQWSSLKASDTAVYYCARFRFNWLLSYYYYYMDVWGKGTTVSVSS
VL: QSALTQPDSVSGSPGQSIAISCTGTSRDVGGYNYVSWYQQHPGKAPKLMIYEVSNRPSGVSDRFSGSKSDNTASLTISGLQGDDEANYYCSSYTDSGTLVFGGGTKVTVL
B8: AB-009275 (antibody, V domains shown)
VH: QVTLRESGPALVKPTQTLTLTCTFSGFSLSTSGMRVSWIRQPPGKALEWLARIDWDDDKFYSTSLKTRLTISKDTSKNQVVLTMTNMDPVDTATYYCARSNYDILTGRLDAFDIWGQGTMVTVSS
VL: not shown
B9: AB-009634 (antibody, V domains shown)
VH: QVTLKESGPALVKPTQTLTLTCTFSGFSLSTSGMRVSWIRQPPGKALEWLARIDWDDDKFYSTSLKTRLTISKDTSKNQVVLTMTNMDPVDTATYYCARYYYYGMDVWGQGTTVTVSS
VL: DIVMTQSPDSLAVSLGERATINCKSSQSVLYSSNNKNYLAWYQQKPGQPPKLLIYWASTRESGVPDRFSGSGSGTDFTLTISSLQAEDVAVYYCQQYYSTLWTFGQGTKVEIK
B10: AB-009619 (antibody, V domains shown)
VH: QVQLVQSGAEVKKPGASVKVSCKVSGYTLIELSMHWVRQAPGKGLEWMGGFDPEDGETIYAQKFQGRVTMTEDTSTDTAYMELSSLRSEDTAVYYCATGPAAATSGWFDPWGQGTLVTVSS
VL: QSALTQPASVSGSPGQSITISCTGTSSDVGGYNYVSWYQQHPGKAPKLMIYDVSNRPSGVSNRFSGSKSGNTASLTISGLQAEDEADYYCSSYTSSSTRVFGGGTKLTVL
B11: AB-009117 (antibody, V domains shown)
VH: ELQLVESGGGLVKPGGSLRLSCTASGFTFISYSISWVRQAPGKGLEWVSSISSYSNYIFYGDSVKGRFNISRDNPKNSVYLQLNSLRAEDTAVYYCVRDTSFYEGGGYYNRFEPWGQGTRVTVSS
VL: EIVMTQSPATLSVSPGERATLSCRASQSISINLAWYQQRPGQAPRLLIYGASTRATGIPARFSGSGSGTEFTLTISSLQSEDSAVYYCQQYNNWPPYTFGQGTTLEIK
B12: AB-009108 (antibody, V domains shown)
VH: QVQLQESGPGLVKPSETLALTCTVSGDSIINNNFYWGWLRQPPGQGLEWIGSLFHTGSAYYNSSLKSRVRSSVDTARNQISLRLSSVTAADTAVYYCARVNIVSVPAPPGAIEGWFDPWGQGTRVTVSP
VL: SYELTQPPSVSVSLGQTARISCSGDALPTKYVHWYQQKAGQAPVVVIFRDTERPSEIPERFSGSSSGTTVTLTISGVQAEDEADYYCQSVDGSGFYVFGSGTKVTVL
B13: AB-009123 (antibody, V domains shown)
VH: QVQLLQSGAEVRKPGASVKVSCKASGYTFSSYVMHWVRQAPGQGLEWMGWINTGNGNTRYSQKIQGRVTFTIDTAANTVNMEVSSLRSEDTAVYYCAREGLRATHYFDYWGRGTLVTVSS
VL: SYELTQPPSVSVSSGQTASIPCSGDRVGDRYVCWYQQKPGQSPVLVIYQDSKRPSGIPERFSGSNSGSTATLTISGTQAIDEADYYCQAWDSSTGGVFGGGTKLTVL
B14: AB-009078 (antibody, V domains shown)
VH: QITLKESGPTLVKPTQTLTLTCTFSGFSLSTSGVGVGWIRQPPGKALEWLALIYWDDDKRYSPSLKSRLTITKDTSKNQVVLTMTNMDPVDTATYYCAHRPGDFWSGYYRYWGQGTLVTVSS
VL: not shown
B15: AB-009280 (antibody, V domains shown)
VH: QVQLVESGGGVVQPGRSLRLSCAASGFTFSSYGMHWVRQAPGKGLEWVAVISYDGSNKYYADSVKGRFTISRDNSKNTLYLQMNSLRAEDTAVYYCAKSRGGGYYYYYMDVWGKGTTVTVSS
VL: DIQMTQSPSSLSASVGDRVTITCRASQGISNYLAWFQQKPGKAPKSLIYAASSLQSGVPSKFSGSGSGTDFTLTISSLQPEDFATYYCQQYNSYPPTFGQGTKLEIK
B16: AB-009646 (antibody, V domains shown)
VH: QVQLVESGGGVVQPGRSLRLSCAASGFTFSSYAMHWVRQAPGKGLEWVAVISYDGSNKYYADSVKGRFTISRDNSKNTLYLQMNSLRAEDTAVYYCARACSSTSCYKGDAFDIWGQGTMVTVSS
VL: SYELTQPPSVSVSPGQTARITCSGDALPKQYAYWYQQKPGQAPVLVIYKDSERPSGIPERFSGSSSGTTVTLTISGVQAEDEADYYCQSADSSGTYSWVFGGGTKLTVL

Experiments:
[1] = target: SARS-CoV-2 spike S1 protein (SARS-CoV-2, UniProt P0DTC2 16-685)
[2] = target: SARS-CoV-2 spike S2 protein (SARS-CoV-2, UniProt P0DTC2 686-1213)

Binder	Kd [1] [nM]	koff [1] [s⁻¹]	kon [1] [M⁻¹ s⁻¹]	Kd [2] [nM]	koff [2] [s⁻¹]	kon [2] [M⁻¹ s⁻¹]
B1	49.4	0.00229	46400	–	–	–
B2	412	0.000174	421	–	–	–
B3	47.9	0.00294	61400	–	–	–
B4	41.2	0.00236	57300	–	–	–
B5	10.5	0.000749	71500	–	–	–
B6	–	–	–	91.3	0.0011	12000
B7	–	–	–	0.0383	3.82e-07	9980
B8	127	0.00083	6530	–	–	–
B9	24.8	0.000496	20000	–	–	–
B10	25.8	0.000726	28100	–	–	–
B11	–	–	–	11.5	0.000438	38200
B12	94.3	0.0126	134000	–	–	–
B13	–	–	–	18.9	0.000802	42500
B14	–	–	–	0.0474	2.44e-07	5150
B15	20.5	0.000536	26200	–	–	–
B16	150	0.00231	15500	–	–	–

Source: patent publication US20240327505A1 (published 2024)
